This passage reports Kd results from publication PMC6658569 (2019).

B1: HtrE (natural protein)
chain: AELVEYDHTFLMGQNASNIDLSRYSEGNPAIPGVYDVSVYVNDQPIINQSITFVAIEGKKNAQACITLKNLLQFHINSPDINNEKAVLLARDETLGNCLNLTEIIPQASVRYDVNDQRLDIDVPQAWVMKNYQNYVDPSLWENGINAAMLSYNLNGYHSETPGRKNESIYAAFNGGMNLGAWRLRASGNYNWMTDSGSNYDFKNRYVQRDIASLRSQLILGESYTTGETFDSVSIRGIRLYSDSRMLPPTLASFAPIIHGVANTNAKVTITQGGYKIYETTVPPGAFVIDDLSPSGYGSDLIVTIEESDGSKRTFSQPFSSVVQMLRPGVGRWDISGGQVLKDDIQDEPNLFQASYYYGLNNYLTGYTGIQITDNNYTAGLLGLGLNTSVGAFSFDVTHSNVRIPDDKTYQGQSYRVSWNKLFEETSTSLNIAAYRYSTQNYLGLNDALTLIDEVKHPEQDLEPKSMRNYSRMKNQVTVSINQPLKFEKKDYGSFYLSGSWSDYWASGQNRSNYSIGYSNSTSWGSYSVSAQRSWNEDGDTDDSVYLSFTIPIEKLLGTEQRTSGFQSIDTQISSDFKGNNQLNVSSSGYSDNARVSYSVNTGYTMNKASKDLSYVGGYASYESPWGTLAGSISANSDNSRQVSLSTDGGFVLHSGGLTFSNDSFSDSDTLAVVQAPGAQGARINYGNSTIDRWGYGVTSALSPYHENRIALDINDLENDVELKSTSAVAVPRQGSVVFADFETVQGQSAIMNITRSDGKNIPFAADIYDEQGNVIGNVGQGGQAFVRGIEQQGNISIKWLEQSKPVSCLAHYQQSPEAEKIAQSIILNGIRCQIQ
modifications: NHS ester fluorescent dye (in the MST assay only)
B2: YhcD (natural protein)
chain: DGIEIAAVDFDRETLKSLGVDPNISHYFSRSARFLPGEYSLIVSVNGEKKGNIATRFDENGDICLDQAFLQQAGLKIPSEEKNGCYDYILSYPGTTITPLPNQEALDIIVSPQAIIPIGLDLTNAATGGTAALLNYSLMSSRAEFSNGSSDYSQAALEGGININDWMLRSHQFLTQTNGTFSNQNSSTYLQRTFTDLKTLMRAGEVNLNNSVLEGASIYGIEIAPDNALQTSGSGVQVTGIANTSQARVEIRQQGVLIHSILVPAGAFTIPDVPVRNGNSDLNVTVVETDGSSHNYIVPSTLFNQHVESFQGYRFAIGRVDDDYDESPWVISASSGWNLTRWSAMNGGVIVAENYQAASIRSSLVPLPDLTVSSQISTSQDTKDSLQGQKYRLDANYNLPFSLGLTTSLTRSDRHYRELSEAIDDDYTDPTKSTYALGLNWSNSILGGFNISGYKTYSYDGDNDSSNLNINWNKAFKHATVSVNWQHQLSASENNEDDGDLFYVNISIPFGRSNTATLYTRHDDHKTHYGTGVMGVVSDEMSYYVNAERDHDERETSLNGSISSNLHYTQVSLAAGASGSDSRTYNGTMSGGIAVHDQGVTFSPWTINDTFAIAKMDNNIAGVRITSQAGPVWTDFRGNAVIPSIQPWRTSGVEIDTASLPKNVDIGNGTKMIKQGRGAVGKVGFSAITQRRALLNITLSDGKKLPRGVAIEDSEGNYLTTSVDDGVVFLNNIKPDMVLDIKDEQQSCRIHLTFPEDAPKDVFYETATGECQ
modifications: NHS ester fluorescent dye (in the MST assay only)
B3: NfrA (natural protein)
chain: DNIGTSAEELGLSDYRHFVIYPRLDKALKAQKNNDEATAIREFEYIHQQVPDNIPLTLYLAEAYRHFGHDDRARLLLEDQLKRHPGDARLERSLAAIPVEVKSVTTVEELLAQQKACDAAPTLRCRSEVGQNALRLAQLPVARAQLNDATFAASPEGKTLRTDLLQRAIYLKQWSQADTLYNEARQQNTLSAAERRQWFDVLLAGQLDDRILALQSQGIFTDPQSYITYATALAYRGEKARLQHYLIENKPLFTTDAQEKSWLYLLSKYSANPVQALANYTVQFADNRQYVVGATLPVLLKEGQYDAAQKLLATLPANEMLEERYAVSVATRNKAEALRLARLLYQQEPANLTRLDQLTWQLMQNEQSREAADLLLQRYPFQGDARVSQTLMARLASLLESHPYLATPAKVAILSKPLPLAEQRQWQSQLPGIADNCPAIVRLLGDMSPSYDAAAWNRLAKCYRDTLPGVALYAWLQAEQRQPSAWQHRAVAYQAYQVEDYATALAAWQKISLHDMSNEDLLAAANTAQAAGNGAARDRWLQQAEKRGLGSNALYWWLHAQRYIPGQPELALNDLTRSINIAPSANAYVARATIYRQRHNVPAAVSDLRAALELEPNNSNTQAALGYALWDSGDIAQSREMLEPAHKGLPDDPALIRQLAYVNQRLDDMPATQHYARLVIDDIDNQALITPLTPEQNQQRFNFRRLHEEVGRRWTFSFDSSIGLRSGAMSTANNNVGGAAPGKSYRSYGQLEAEYRIGRNMLLEGDLLSVYSRVFADTGENGVMMPVKNPMSGTGLRWKPLRDQIFFIAVEQQLPLNGQNGASDTMLRASASFFNGGKYSDEWHPNGSGWFAQNLYLDAAQYIRQDIQAWTADYRVSWHQKVANGQTIEPYAHVQDNGYRDKGTQGAQLGGVGVRWNIWTGETHYDAWPHKVSLGVEYQHTFKAINQRNGERNNAFLTIGVHW
modifications: NHS ester fluorescent dye (in the MST assay only)

For the assay, the target named is human complement C3 (human). The experiment in a line: MST.
Chain of human complement C3 (human) (chain, as listed by the source, chain 1 of 2): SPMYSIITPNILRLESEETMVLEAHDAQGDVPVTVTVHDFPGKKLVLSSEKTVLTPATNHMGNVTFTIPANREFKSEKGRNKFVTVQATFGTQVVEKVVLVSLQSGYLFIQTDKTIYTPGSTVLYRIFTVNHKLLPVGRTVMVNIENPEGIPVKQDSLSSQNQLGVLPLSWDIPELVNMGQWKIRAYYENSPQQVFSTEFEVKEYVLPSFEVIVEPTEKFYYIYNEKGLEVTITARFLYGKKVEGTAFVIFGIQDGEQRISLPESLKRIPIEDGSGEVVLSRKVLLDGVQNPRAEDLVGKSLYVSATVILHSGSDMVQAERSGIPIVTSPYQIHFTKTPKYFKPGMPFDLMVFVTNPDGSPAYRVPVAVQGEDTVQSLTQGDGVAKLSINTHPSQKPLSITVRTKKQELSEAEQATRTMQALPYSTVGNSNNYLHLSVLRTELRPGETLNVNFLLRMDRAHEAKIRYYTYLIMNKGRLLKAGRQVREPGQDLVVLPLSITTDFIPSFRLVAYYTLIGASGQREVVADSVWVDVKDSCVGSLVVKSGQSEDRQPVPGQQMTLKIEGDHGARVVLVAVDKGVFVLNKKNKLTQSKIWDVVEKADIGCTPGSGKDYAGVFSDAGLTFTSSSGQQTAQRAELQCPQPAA
Chain of human complement C3 (human) (chain, as listed by the source, chain 2 of 2): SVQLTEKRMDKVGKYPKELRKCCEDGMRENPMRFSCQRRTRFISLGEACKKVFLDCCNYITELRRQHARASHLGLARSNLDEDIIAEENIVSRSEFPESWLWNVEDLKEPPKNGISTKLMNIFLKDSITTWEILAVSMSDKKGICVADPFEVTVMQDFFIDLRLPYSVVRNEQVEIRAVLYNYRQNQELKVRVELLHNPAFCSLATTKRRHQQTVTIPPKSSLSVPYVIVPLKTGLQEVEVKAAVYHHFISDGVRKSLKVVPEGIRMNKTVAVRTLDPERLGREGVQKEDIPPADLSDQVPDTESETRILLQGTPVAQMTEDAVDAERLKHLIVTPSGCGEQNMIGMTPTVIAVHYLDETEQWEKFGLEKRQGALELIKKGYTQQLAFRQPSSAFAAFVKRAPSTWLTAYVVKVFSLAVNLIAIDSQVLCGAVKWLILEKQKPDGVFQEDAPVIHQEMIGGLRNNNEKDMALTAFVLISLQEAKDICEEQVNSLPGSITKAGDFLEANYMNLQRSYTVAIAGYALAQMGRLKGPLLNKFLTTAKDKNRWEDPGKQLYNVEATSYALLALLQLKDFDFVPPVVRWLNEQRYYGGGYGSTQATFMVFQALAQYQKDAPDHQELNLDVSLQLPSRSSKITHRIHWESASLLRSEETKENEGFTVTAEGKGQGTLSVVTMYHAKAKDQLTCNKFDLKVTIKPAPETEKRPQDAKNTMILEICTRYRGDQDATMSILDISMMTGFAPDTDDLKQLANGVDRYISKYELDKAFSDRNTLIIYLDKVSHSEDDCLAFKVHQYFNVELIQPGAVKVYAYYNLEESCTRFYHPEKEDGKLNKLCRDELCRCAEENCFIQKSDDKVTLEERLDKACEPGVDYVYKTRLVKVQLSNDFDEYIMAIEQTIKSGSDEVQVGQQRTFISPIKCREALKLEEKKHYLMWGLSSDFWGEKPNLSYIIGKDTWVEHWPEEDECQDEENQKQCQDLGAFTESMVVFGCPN
One may read the Kd as the concentration at which binding is half-saturated. In turn, B1 came in with a dissociation constant Kd of 5.4 µM.
B2 registered a Kd of 8.9 µM.
B3 registered an equilibrium dissociation constant (Kd) of 1.3 µM.
